Laboratory results from publication PMC5817353, “Iron Sulfur and Molybdenum Cofactor Enzymes Regulate the Drosophila Life Cycle by Controlling Cell Metabolism” (Frontiers in Physiology, 2018).

Biological target: Drosophila Nfs1^Δ1–53/Isd11/IscU complex (Drosophila melanogaster, UniProt Q9VKD3 54-462; O46098 1-92; Q9VHK6 1-154)
Assay: cell-based or functional assay

Sequence of Drosophila Nfs1^Δ1–53/Isd11/IscU complex (Q9VKD3 54-462, stated change not applied, chain 1 of 3): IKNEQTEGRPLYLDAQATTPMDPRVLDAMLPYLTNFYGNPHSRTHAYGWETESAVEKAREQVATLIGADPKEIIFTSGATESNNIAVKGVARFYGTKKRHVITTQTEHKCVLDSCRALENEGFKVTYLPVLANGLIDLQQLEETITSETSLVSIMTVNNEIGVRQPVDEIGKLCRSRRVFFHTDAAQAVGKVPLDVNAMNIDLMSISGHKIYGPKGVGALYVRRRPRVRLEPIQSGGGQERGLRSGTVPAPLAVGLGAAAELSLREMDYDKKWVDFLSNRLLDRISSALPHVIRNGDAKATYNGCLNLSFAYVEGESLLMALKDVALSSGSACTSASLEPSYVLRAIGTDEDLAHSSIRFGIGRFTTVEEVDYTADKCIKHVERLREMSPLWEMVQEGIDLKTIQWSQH
Sequence of Drosophila Nfs1^Δ1–53/Isd11/IscU complex (O46098 whole entry, stated change not applied, chain 2 of 3): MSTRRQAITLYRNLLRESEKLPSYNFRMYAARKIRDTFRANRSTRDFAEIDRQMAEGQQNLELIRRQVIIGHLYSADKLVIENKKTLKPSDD
Sequence of Drosophila Nfs1^Δ1–53/Isd11/IscU complex (Q9VHK6 whole entry, stated change not applied, chain 3 of 3): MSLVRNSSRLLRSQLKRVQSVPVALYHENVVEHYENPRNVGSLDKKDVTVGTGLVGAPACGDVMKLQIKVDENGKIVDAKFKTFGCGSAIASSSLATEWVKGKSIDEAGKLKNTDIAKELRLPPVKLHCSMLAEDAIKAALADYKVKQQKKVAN

B1: human frataxin (FXN) (natural protein, UniProt Q16595 42-210, looked up)
chain: LRTDIDATCTPRRASSNQRGLNQIWNVKKQSVYLMNLRKSGTLGHPGSLDETTYERLAEETLDSLAEFFEDLADKPYTFEDYDVSFGSGVLTVKLGGDLGTYVINKQTPNKQIWLSSPSSGPKRYDWTGKNWVYSHDGVSLHELLAAELTKALKTKLDLSSLAYSGKDA
  L-cysteine desulfurase activity (total sulfide produced, methylene blue) of the IscU/Nfs1^Δ1–53/Isd11 complex on addition of human frataxin, 1:3 [Nfs1]:[FXN], anaerobic, 10 min at 23°C: 6 fold
